Literature values, collected in PMC3185792.
Read-outs that look alike come from different tables or passages of the source.

How the values were obtained:
ICAM (Homo sapiens) [1] = target: ICAM (Homo sapiens) (UniProt P05362)
ICAM (Homo sapiens) [2] = target: ICAM (Homo sapiens) (UniProt P05362); remark: listed apart in the source

Chain of ICAM (Homo sapiens) (P05362 28-480): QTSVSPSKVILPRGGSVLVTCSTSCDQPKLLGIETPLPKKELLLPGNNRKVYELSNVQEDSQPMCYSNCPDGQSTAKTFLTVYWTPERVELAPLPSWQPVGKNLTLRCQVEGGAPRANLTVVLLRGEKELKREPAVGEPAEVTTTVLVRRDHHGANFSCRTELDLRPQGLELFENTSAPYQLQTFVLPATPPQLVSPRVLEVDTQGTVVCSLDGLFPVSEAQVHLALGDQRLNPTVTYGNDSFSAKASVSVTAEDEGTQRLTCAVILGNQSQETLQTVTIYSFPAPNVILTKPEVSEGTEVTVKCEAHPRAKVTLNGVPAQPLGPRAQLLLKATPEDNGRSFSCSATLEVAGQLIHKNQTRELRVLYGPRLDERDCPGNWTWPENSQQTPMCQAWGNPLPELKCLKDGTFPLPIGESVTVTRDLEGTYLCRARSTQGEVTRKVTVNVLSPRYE
Chain of LFA-1 integrin (closed conformation) (P20701 26-1090): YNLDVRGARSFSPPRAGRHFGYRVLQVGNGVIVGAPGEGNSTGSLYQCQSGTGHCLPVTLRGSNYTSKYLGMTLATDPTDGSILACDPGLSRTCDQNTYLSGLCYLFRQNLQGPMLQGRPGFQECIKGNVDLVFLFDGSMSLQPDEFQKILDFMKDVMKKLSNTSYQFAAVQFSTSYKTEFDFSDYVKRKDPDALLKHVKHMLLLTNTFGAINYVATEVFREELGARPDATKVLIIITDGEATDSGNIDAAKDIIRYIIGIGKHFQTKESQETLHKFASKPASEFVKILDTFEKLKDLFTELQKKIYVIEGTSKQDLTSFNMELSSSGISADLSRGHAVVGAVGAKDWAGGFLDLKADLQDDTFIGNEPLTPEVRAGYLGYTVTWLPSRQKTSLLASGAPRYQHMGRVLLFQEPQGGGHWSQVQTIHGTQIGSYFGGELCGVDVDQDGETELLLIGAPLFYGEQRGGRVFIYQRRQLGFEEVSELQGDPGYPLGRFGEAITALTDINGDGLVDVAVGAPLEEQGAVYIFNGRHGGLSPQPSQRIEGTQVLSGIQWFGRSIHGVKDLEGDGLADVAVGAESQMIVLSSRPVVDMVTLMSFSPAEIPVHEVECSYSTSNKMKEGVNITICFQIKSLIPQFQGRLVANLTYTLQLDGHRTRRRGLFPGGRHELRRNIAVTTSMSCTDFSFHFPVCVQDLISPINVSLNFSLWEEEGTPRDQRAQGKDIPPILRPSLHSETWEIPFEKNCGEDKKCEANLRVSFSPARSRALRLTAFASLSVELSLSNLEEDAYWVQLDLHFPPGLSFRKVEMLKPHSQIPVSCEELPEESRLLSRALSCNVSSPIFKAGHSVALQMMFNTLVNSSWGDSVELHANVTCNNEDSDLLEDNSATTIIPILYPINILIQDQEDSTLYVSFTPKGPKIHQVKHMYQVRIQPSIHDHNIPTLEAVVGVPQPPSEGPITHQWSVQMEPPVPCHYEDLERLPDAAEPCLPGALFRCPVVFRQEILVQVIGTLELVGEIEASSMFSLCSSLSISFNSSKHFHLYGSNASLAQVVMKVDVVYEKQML
Chain of LFA-1 integrin (closed conformation) (P05107 23-700, further chain): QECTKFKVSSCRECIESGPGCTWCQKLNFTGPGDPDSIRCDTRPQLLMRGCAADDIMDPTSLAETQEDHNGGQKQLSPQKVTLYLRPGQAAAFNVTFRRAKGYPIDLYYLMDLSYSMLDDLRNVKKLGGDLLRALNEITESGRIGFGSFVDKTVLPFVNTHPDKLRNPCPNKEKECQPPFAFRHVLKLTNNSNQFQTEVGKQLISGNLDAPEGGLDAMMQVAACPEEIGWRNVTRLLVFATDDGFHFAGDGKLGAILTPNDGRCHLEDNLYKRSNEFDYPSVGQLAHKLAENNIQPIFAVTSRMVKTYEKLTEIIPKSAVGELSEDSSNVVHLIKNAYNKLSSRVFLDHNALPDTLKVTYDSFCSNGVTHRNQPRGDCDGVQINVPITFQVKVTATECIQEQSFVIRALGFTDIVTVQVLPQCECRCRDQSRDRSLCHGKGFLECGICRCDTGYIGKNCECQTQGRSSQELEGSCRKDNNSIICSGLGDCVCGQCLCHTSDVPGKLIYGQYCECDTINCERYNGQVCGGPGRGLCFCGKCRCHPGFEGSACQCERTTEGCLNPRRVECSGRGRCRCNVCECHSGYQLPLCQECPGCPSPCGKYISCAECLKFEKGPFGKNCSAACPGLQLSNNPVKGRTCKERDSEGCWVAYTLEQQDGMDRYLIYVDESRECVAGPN
Chain of LFA-1 integrin (open conformation) (P20701 26-1090): as the sequence (P20701 26-1090) above
Chain of LFA-1 integrin (open conformation) (P05107 23-700, further chain): as the sequence (P05107 23-700, further chain) above

LFA-1 integrin (closed conformation) (from UniProt P20701)
Kd (ICAM (Homo sapiens) [1]): 100 µM

LFA-1 integrin (open conformation) (from UniProt P20701)
Kd (ICAM (Homo sapiens) [2]): 400 nM
